In PMC5360572 (EBioMedicine, 2017):
Blank lines part the entries; values can stand above or below the molecule they belong to.

B2: human PD-L2 Ig fusion protein (Fc fusion, UniProt Q9BQ51 20-220, looked up)
chain: LFTVTVPKELYIIEHGSNVTLECNFDTGSHVNLGAITASLQKVENDTSPHRERATLLEEQLPLGKASFHIPQVQVRDEGQYQCIIIYGVAWDYKYLTLKVKASYRKINTHILKVPETDEVELTCQATGYPLAEVSWPNVSVPANTSHSRTPEGLYQVTSVLRLKPPPGRNFSCVFWNTHVRELTLASIDLQSQMEPRTHPT
notes: characterized by SEC prior to use; also called huPD-L2; B7-DC; source: bought: R&D Systems

How the values were obtained:
[1] = biological target: human mature dendritic cells expressing PD-L1 and PD-L2
[2] = biological target: B2; assay: SPR; BIAcore 3000, 25 °C; PD-L1-Ig or PD-L2-Ig immobilized on CM5 chip by amine coupling; soluble monomeric PD-1 or mutants (0.01–100 μM) injected at 20 μl/min; equilibrium Kd, 1:1 Langmuir model; settings: both partners purified
[3] = biological target: T1, human PD-L1 Ig fusion protein (human, UniProt Q9NZQ7 19-238); assay: as above; settings: both partners purified
T1 construct: characterized by SEC prior to use; detected on cells with anti-human IgG Fcγ-specific F(ab')2; also called huPD-L1; B7-H1; source: bought: R&D Systems
T1 sequence (Q9NZQ7 19-238): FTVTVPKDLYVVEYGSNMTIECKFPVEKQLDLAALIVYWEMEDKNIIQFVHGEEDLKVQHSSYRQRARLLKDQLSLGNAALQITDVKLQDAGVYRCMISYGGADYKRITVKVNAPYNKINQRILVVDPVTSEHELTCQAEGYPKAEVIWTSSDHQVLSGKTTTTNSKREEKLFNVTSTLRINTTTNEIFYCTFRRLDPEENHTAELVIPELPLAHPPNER

[4] = biological target: T2, full-length human PD-1 I126A, on HEK293 cells (human, UniProt Q15116 25-288, I126A); assay: flow cytometry on cells; HEK293 cells transiently transfected with full-length wild type or mutant human PD-1, incubated with PD-L1 or PD-L2 Ig fusion proteins (0.01–50 μg/ml) for one hour on ice; APC anti-human IgG F(ab')2 Fcγ specific; MFI normalized to wild type PD-1 binding; relative binding at 0.5 μg/ml ligand; settings: one partner purified
T2 construct: Gateway pEF5/FRT/V5-DEST destination vector; source: HEK293, transiently transfected, on the cell surface
T2 sequence (Q15116 25-288 I126A): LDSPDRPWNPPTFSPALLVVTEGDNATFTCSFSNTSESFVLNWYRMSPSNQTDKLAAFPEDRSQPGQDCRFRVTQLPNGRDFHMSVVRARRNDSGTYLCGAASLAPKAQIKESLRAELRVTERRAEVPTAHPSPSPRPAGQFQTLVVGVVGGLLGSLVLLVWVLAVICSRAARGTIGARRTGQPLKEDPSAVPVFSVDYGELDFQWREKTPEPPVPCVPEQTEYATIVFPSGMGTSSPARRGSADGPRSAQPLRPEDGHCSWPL

T cell proliferation (3H-thymidine uptake) in allogeneic MLR with dendritic cells pre-treated with HA PD-1 Ig (0.5–5 μg/ml), against untreated control [1]: > 50% | production of IFN-γ and IL-12p70 in allogeneic MLR, against untreated control (no Ig) [1]: > 6 fold
Molecule: high-affinity human PD-1 (A132L) Ig fusion protein (from UniProt Q15116 25-170) (Fc fusion)

Kd [2]: 10.7 µM | Kd [3]: 4.02 µM
B1: mouse PD-1, wild type (soluble, monomeric) (domain or fragment, UniProt Q02242 25-169, looked up)
chain: LEVPNGPWRSLTFYPAWLTVSEGANATFTCSLSNWSEDLMLNWNRLSPSNQTEKQAAFCNGLSQPVQDARFQIIQLPNRHDFHMNILDTRRNDSGIYLCGAISLHPKAKIEESPGAELVVTERILETSTRYPSPSPKPEGRFQGM
notes: mouse PD-1, soluble monomeric form used as SPR analyte; the construct used here is not described; also called mPD-1; murine PD-1

Molecule: B2
reduction of binding relative to wild type PD-1 [4]: 50%
